Article PMC12861225

B1: Tissue-nonspecific alkaline phosphatase (TNALP): N140Q/N271Q (protein)
parent chain: MISPFLVLAIGTCLTNSLVPEKEKDPKYWRDQAQETLKYALELQKLNTNVAKNVIMFLGDGMGVSTVTAARILKGQLHHNPGEETRLEMDKFPFVALSKTYNTNAQVPDSAGTATAYLCGVKANEGTVGVSAATERSRCNTTQGNEVTSILRWAKDAGKSVGIVTTTRVNHATPSAAYAHSADRDWYSDNEMPPEALSQGCKDIAYQLMHNIRDIDVIMGGGRKYMYPKNKTDVEYESDEKARGTRLDGLDLVDTWKSFKPRYKHSHFIWNRTELLTLDPHNVDYLLGLFEPGDMQYELNRNNVTDPSLSEMVVVAIQILRKNPKGFFLLVEGGRIDHGHHEGKAKQALHEAVEMDRAIGQAGSLTSSEDTLTVVTADHSHVFTFGGYTPRGNSIFGLAPMLSDTDKKPFTAILYGNGPGYKVVGGERENVSMVDYAHNNYQAQSAVPLRHETHGGEDVAVFSKGPMAHLLHGVHEQNYVPHVMAYAACIGANLGHCAPASSAGSLAAGPLLLALALYPLSVLF
B2: Tissue-nonspecific alkaline phosphatase (TNALP): N230Q/N271Q (protein)
parent chain: B1 parent chain
B3: Tissue-nonspecific alkaline phosphatase (TNALP): N230Q/N303Q (protein)
parent chain: B1 parent chain
B4: Tissue-nonspecific alkaline phosphatase (TNALP): N271Q/N430D (protein)
parent chain: B1 parent chain
B5: Tissue-nonspecific alkaline phosphatase (TNALP): N140Q/N230Q (protein)
parent chain: B1 parent chain
B6: Tissue-nonspecific alkaline phosphatase (TNALP): N271Q (protein)
parent chain: B1 parent chain
B7: Tissue-nonspecific alkaline phosphatase (TNALP): N140Q (protein)
parent chain: B1 parent chain
B8: Tissue-nonspecific alkaline phosphatase (TNALP): N430D (protein)
parent chain: B1 parent chain
B9: Tissue-nonspecific alkaline phosphatase (TNALP): N230Q/N430D (protein)
parent chain: B1 parent chain
B10: Tissue-nonspecific alkaline phosphatase (TNALP): N303Q/N430D (protein)
parent chain: B1 parent chain
B11: Tissue-nonspecific alkaline phosphatase (TNALP): N230Q (protein)
parent chain: B1 parent chain
B12: Tissue-nonspecific alkaline phosphatase (TNALP): N140Q/N430D (protein)
parent chain: B1 parent chain
B13: Tissue-nonspecific alkaline phosphatase (TNALP): N303Q (protein)
parent chain: B1 parent chain
B14: Tissue-nonspecific alkaline phosphatase (TNALP): N271Q/N303Q (protein)
parent chain: B1 parent chain
B15: Tissue-nonspecific alkaline phosphatase (TNALP): N140Q/N303Q (protein)
parent chain: B1 parent chain
B16: Tissue-nonspecific alkaline phosphatase (TNALP): heterodimeric N303Q/N430D (protein)
parent chain: B1 parent chain
B17: Tissue-nonspecific alkaline phosphatase (TNALP): heterodimeric N271Q/N430D (protein)
parent chain: B1 parent chain
B18: Tissue-nonspecific alkaline phosphatase (TNALP): heterodimeric N271Q/N303Q (protein)
parent chain: B1 parent chain
B19: Tissue-nonspecific alkaline phosphatase (TNALP): N230Q/N271Q/N303Q (protein)
parent chain: B1 parent chain
B20: Tissue-nonspecific alkaline phosphatase (TNALP): N140Q/N230Q/N430D (protein)
parent chain: B1 parent chain
B21: Tissue-nonspecific alkaline phosphatase (TNALP): N230Q/N271Q/N430D (protein)
parent chain: B1 parent chain
B22: Tissue-nonspecific alkaline phosphatase (TNALP): heterodimeric N430D (protein)
parent chain: B1 parent chain
B23: Tissue-nonspecific alkaline phosphatase (TNALP): heterodimeric N140Q/N303Q (protein)
parent chain: B1 parent chain
B24: Tissue-nonspecific alkaline phosphatase (TNALP): heterodimeric N140Q/N271Q (protein)
parent chain: B1 parent chain
B25: Tissue-nonspecific alkaline phosphatase (TNALP): heterodimeric N140Q (protein)
parent chain: B1 parent chain
B26: Tissue-nonspecific alkaline phosphatase (TNALP): heterodimeric N230Q/N430D (protein)
parent chain: B1 parent chain
B27: Tissue-nonspecific alkaline phosphatase (TNALP): heterodimeric N230Q/N303Q (protein)
parent chain: B1 parent chain
B28: Tissue-nonspecific alkaline phosphatase (TNALP): heterodimeric N140Q/N430D (protein)
parent chain: B1 parent chain
B29: Tissue-nonspecific alkaline phosphatase (TNALP): heterodimeric N230Q/N271Q (protein)
parent chain: B1 parent chain
B30: Tissue-nonspecific alkaline phosphatase (TNALP): heterodimeric N230Q (protein)
parent chain: B1 parent chain
B31: Tissue-nonspecific alkaline phosphatase (TNALP): heterodimeric N303Q (protein)
parent chain: B1 parent chain
B32: Tissue-nonspecific alkaline phosphatase (TNALP): heterodimeric N271Q (protein)
parent chain: B1 parent chain
B33: Tissue-nonspecific alkaline phosphatase (TNALP): heterodimeric N140Q/N230Q (protein)
parent chain: B1 parent chain

Assay: anti-Flag immunoblot, lysate vs medium, 1 μM MG-132 16 h
Conditions: glycan lost; control: wild type

Which “localisation_or_trafficking, fold_change” value does the source give for B1 here?
The value was “changes”.

Which “localisation_or_trafficking, fold_change” value does the source give for B2 here?
Its value is “changes”.

Assay: SYPRO Orange thermal shift, pooled purified protein
Conditions: glycan lost; control: wild type

Which “stability_or_folding, Tm” value does the source give for B3 here?
The value was “no change, 54.1 vs 54.5”.

Which “stability_or_folding, Tm” value does the source give for B4 here?
The value was “increases, 55.3, 69.7 vs 54.5”.

For B5, which “stability_or_folding, Tm” value is on record?
Its value is “no change, 54.9 vs 54.5”.

With B6 as the protein, how does the “stability_or_folding, Tm” value read?
The value was “no change, 54.5 vs 54.5”.

Which “stability_or_folding, Tm” value does the source give for B7 here?
Its value is “no change, 54.9 vs 54.5”.

For B8, which “stability_or_folding, Tm” value is on record?
Its value is “increases, 55.7 vs 54.5”.

With B9 as the protein, how does the “stability_or_folding, Tm” value read?
The value was “increases, 55.7 vs 54.5”.

Which “stability_or_folding, Tm” value does the source give for B10 here?
The value was “increases, 55.3, 70.1 vs 54.5”.

For B11, which “stability_or_folding, Tm” value is on record?
The value was “no change, 54.5 vs 54.5”.

With B12 as the protein, how does the “stability_or_folding, Tm” value read?
The value was “increases, 56.5 vs 54.5”.

Which “stability_or_folding, Tm” value does the source give for B1 here?
Its value is “decreases, 53.7 vs 54.5”.

Which “stability_or_folding, Tm” value does the source give for B13 here?
The value was “decreases, 53.7 vs 54.5”.

For B14, which “stability_or_folding, Tm” value is on record?
The value was “decreases, 52.9 vs 54.5”.

Assay: pNPP activity of supernatant, normalised to total protein; homodimeric single mutants
Conditions: glycan lost; control: wild type

For B7, which “enzymatic_activity, other: specific activity” value (shortened to “enzymatic_activity, other”) is on record?
The value was “no change”.

With B8 as the protein, how does the “enzymatic_activity, other” value read?
The value was “no change”.

Which “enzymatic_activity, other” value does the source give for B11 here?
Its value is “no change”.

For B13, which “enzymatic_activity, other” value is on record?
Its value is “no change”.

Assay: pNPP activity of supernatant, normalised to total protein; homodimeric double mutants
Conditions: glycan lost; control: wild type

Which “enzymatic_activity, other” value does the source give for B3 here?
The value was “no change, 9.5 ± 6.5 vs 13.6 ± 6.6”.

For B4, which “enzymatic_activity, other” value is on record?
Its value is “decreases, 4.3 ± 3.4 vs 13.6 ± 6.6”.

Which “enzymatic_activity, other” value does the source give for B5 here?
Its value is “decreases, 3.8 ± 3.9 vs 13.6 ± 6.6”.

Which “enzymatic_activity, other” value does the source give for B9 here?
Its value is “no change, 9 ± 6 vs 13.6 ± 6.6”.

Which “enzymatic_activity, other” value does the source give for B10 here?
The value was “decreases, 4.7 ± 4 vs 13.6 ± 6.6”.

With B12 as the protein, how does the “enzymatic_activity, other” value read?
Its value is “decreases, 7 ± 4.3 vs 13.6 ± 6.6”.

Which “enzymatic_activity, other” value does the source give for B14 here?
Its value is “decreases, 3.9 ± 2.8 vs 13.6 ± 6.6”.

Which “enzymatic_activity, other” value does the source give for B15 here?
Its value is “decreases, 3.5 ± 2.7 vs 13.6 ± 6.6”.

Assay: remaining pNPP activity after 15 min at 56 °C; homodimeric
Conditions: glycan lost; control: wild type

With B4 as the protein, how does the “stability_or_folding, other: remaining activity” value read?
The value was “increases, 63 ± 5 vs 23 ± 4”.

With B10 as the protein, how does the “stability_or_folding, other: remaining activity” value read?
Its value is “increases, 47 ± 13 vs 23 ± 4”.

For B14, which “stability_or_folding, other: remaining activity” value is on record?
Its value is “decreases, 12 ± 1 vs 23 ± 4”.

Assay: remaining pNPP activity after 56 °C; mutant:WT plasmid 1:1
Conditions: glycan lost; control: wild type

With B16 as the protein, how does the stability_or_folding read?
Its stability_or_folding is “no change”.

For B17, which stability_or_folding is on record?
Its stability_or_folding is “no change”.

With B18 as the protein, how does the stability_or_folding read?
Its stability_or_folding is “no change”.

Assay: anti-Flag capillary immunoblot of Flag-purified medium, pooled n=6
Conditions: glycan lost; control: wild type

Which “expression_or_secretion, fold_change” value does the source give for B3 here?
Its value is “decreases, 0.4 vs 1.0”.

With B4 as the protein, how does the “expression_or_secretion, fold_change” value read?
The value was “decreases, 0.7 vs 1.0”.

For B5, which “expression_or_secretion, fold_change” value is on record?
Its value is “decreases, 0.5 vs 1.0”.

With B6 as the protein, how does the “expression_or_secretion, fold_change” value read?
Its value is “decreases, 0.4 vs 1.0”.

With B7 as the protein, how does the “expression_or_secretion, fold_change” value read?
Its value is “decreases, 0.4 vs 1.0”.

Which “expression_or_secretion, fold_change” value does the source give for B8 here?
Its value is “decreases, 0.5 vs 1.0”.

With B9 as the protein, how does the “expression_or_secretion, fold_change” value read?
Its value is “decreases, 0.6 vs 1.0”.

For B10, which “expression_or_secretion, fold_change” value is on record?
The value was “decreases, 0.7 vs 1.0”.

Which “expression_or_secretion, fold_change” value does the source give for B11 here?
Its value is “decreases, 0.5 vs 1.0”.

For B12, which “expression_or_secretion, fold_change” value is on record?
The value was “decreases, 0.6 vs 1.0”.

For B1, which “expression_or_secretion, fold_change” value is on record?
Its value is “decreases, 0.2 vs 1.0”.

Which “expression_or_secretion, fold_change” value does the source give for B13 here?
Its value is “decreases, 0.5 vs 1.0”.

With B14 as the protein, how does the “expression_or_secretion, fold_change” value read?
Its value is “decreases, 0.4 vs 1.0”.

For B2, which “expression_or_secretion, fold_change” value is on record?
The value was “abolishes, 0.0 vs 1.0”.

Which “expression_or_secretion, fold_change” value does the source give for B15 here?
Its value is “decreases, 0.4 vs 1.0”.

Assay: weak anion-exchange HPLC with activity-based detection
Conditions: glycan lost; control: wild type

Which “other: HPLC isoform profile” value does the source give for B3 here?
Its value is “no change”.

For B4, which “other: HPLC isoform profile” value is on record?
The value was “changes”.

Which “other: HPLC isoform profile” value does the source give for B6 here?
Its value is “no change”.

With B7 as the protein, how does the “other: HPLC isoform profile” value read?
The value was “no change”.

For B8, which “other: HPLC isoform profile” value is on record?
Its value is “no change”.

Which “other: HPLC isoform profile” value does the source give for B9 here?
The value was “changes”.

With B10 as the protein, how does the “other: HPLC isoform profile” value read?
Its value is “changes”.

For B11, which “other: HPLC isoform profile” value is on record?
Its value is “no change”.

With B12 as the protein, how does the “other: HPLC isoform profile” value read?
Its value is “changes”.

With B13 as the protein, how does the “other: HPLC isoform profile” value read?
The value was “no change”.

For B14, which “other: HPLC isoform profile” value is on record?
The value was “changes”.

For B15, which “other: HPLC isoform profile” value is on record?
Its value is “no change”.

Assay: pNPP activity of supernatant; triple-site mutants
Conditions: glycan lost; control: wild type

For B19, which enzymatic_activity is on record?
Its enzymatic_activity is “abolishes”.

Which enzymatic_activity does the source give for B20 here?
The enzymatic_activity was “abolishes”.

Which enzymatic_activity does the source give for B21 here?
The enzymatic_activity was “abolishes”.

Assay: pNPP activity; mutant:WT plasmid 1:1 (heterodimers not confirmed)
Conditions: glycan lost; control: wild type plasmid only

With B22 as the protein, how does the “enzymatic_activity, percent_of_wt” value read?
The value was “decreases”.

Which “enzymatic_activity, percent_of_wt” value does the source give for B23 here?
Its value is “decreases”.

For B24, which “enzymatic_activity, percent_of_wt” value is on record?
The value was “decreases”.

With B25 as the protein, how does the “enzymatic_activity, percent_of_wt” value read?
The value was “decreases”.

Which “enzymatic_activity, percent_of_wt” value does the source give for B26 here?
The value was “no change”.

With B27 as the protein, how does the “enzymatic_activity, percent_of_wt” value read?
Its value is “decreases”.

Which “enzymatic_activity, percent_of_wt” value does the source give for B28 here?
Its value is “decreases”.

Which “enzymatic_activity, percent_of_wt” value does the source give for B29 here?
Its value is “decreases”.

With B30 as the protein, how does the “enzymatic_activity, percent_of_wt” value read?
Its value is “decreases”.

For B31, which “enzymatic_activity, percent_of_wt” value is on record?
The value was “decreases”.

For B16, which “enzymatic_activity, percent_of_wt” value is on record?
Its value is “decreases”.

For B17, which “enzymatic_activity, percent_of_wt” value is on record?
The value was “decreases”.

With B18 as the protein, how does the “enzymatic_activity, percent_of_wt” value read?
The value was “decreases”.

With B32 as the protein, how does the “enzymatic_activity, percent_of_wt” value read?
Its value is “decreases”.

With B33 as the protein, how does the “enzymatic_activity, percent_of_wt” value read?
Its value is “decreases”.
